Ends that are not written are not given here.

T1: GST-Tom20(35-183) (S. cerevisiae, UniProt P35180 35-183)
T1 construct: also called cytosolic domain of Tom20; source: expressed and purified as described earlier (Papić et al., 2013); not shown: GST, N-terminal, kept
T1 sequence (looked up): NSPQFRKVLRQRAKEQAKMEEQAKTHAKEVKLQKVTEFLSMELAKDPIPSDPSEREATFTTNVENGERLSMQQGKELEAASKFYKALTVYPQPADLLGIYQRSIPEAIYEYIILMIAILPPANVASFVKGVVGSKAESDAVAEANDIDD

T2: recombinant Sis1 (S. cerevisiae, UniProt P25294 1-352)
T2 construct: Sis1, yeast Hsp40 co-chaperone; also called Hsp40 co-chaperone Sis1; source: recombinantly expressed and purified
T2 sequence (looked up): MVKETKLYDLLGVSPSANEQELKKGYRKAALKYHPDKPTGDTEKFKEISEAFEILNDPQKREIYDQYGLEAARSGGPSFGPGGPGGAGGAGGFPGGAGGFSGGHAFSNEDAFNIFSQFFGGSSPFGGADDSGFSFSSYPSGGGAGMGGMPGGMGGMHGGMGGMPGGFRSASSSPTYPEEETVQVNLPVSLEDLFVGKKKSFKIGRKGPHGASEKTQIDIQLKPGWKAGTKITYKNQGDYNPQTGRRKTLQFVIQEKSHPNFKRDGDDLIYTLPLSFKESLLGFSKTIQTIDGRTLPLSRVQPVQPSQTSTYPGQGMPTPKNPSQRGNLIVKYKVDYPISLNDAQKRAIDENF

B1: Mcr1-3HA (full length) (natural protein, S. cerevisiae, UniProt P36060 1-302, looked up)
chain: MFSRLSRSHSKALPIALGTVAIAAATAFYFANRNQHSFVFNESNKVFKGDDKWIDLPISKIEEESHDTRRFTFKLPTEDSEMGLVLASALFAKFVTPKGSNVVRPYTPVSDLSQKGHFQLVVKHYEGGKMTSHLFGLKPNDTVSFKGPIMKWKWQPNQFKSITLLGAGTGINPLYQLAHHIVENPNDKTKVNLLYGNKTPQDILLRKELDALKEKYPDKFNVTYFVDDKQDDQDFDGEISFISKDFIQEHVPGPKESTHLFVCGPPPFMNAYSGEKKSPKDQGELIGILNNLGYSKDQVFKF
notes: Mcr1, S. cerevisiae, signal-anchored mitochondrial outer membrane protein (Mcr1mom is its outer membrane isoform); also called Mcr1-FL; yk-Mcr1-3HA; source: in vitro translated in yeast extract; not shown: 3HA, C-terminal, kept
B2: TAMRA-labeled Tom70 peptide, residues 1-32 (peptide, UniProt P07213 1-32, looked up)
peptide: MKSFITRNKTAILATVAATGTAIGAYYYYNQL
modifications: also: TAMRA label, position not given here
notes: Tom70, residues 1-32, contain the transmembrane segment; synthesis as in Jores et al., 2016; also called Tom70(TMS); TMS-labelled peptide of Tom70; source: synthetic peptide
B3: TAMRA-labeled Mcr1 peptide, residues 1-39 (peptide, UniProt P36060 1-39, looked up)
peptide: MFSRLSRSHSKALPIALGTVAIAAATAFYFANRNQHSFV
modifications: also: TAMRA label, position not given here
notes: Mcr1, residues 1-39, contain the transmembrane segment; synthesis as in Jores et al., 2016; also called Mcr1(TMS); Mcr1-TMS peptide; source: synthetic peptide
B4: GST-Tom70(46-617) (domain or fragment, S. cerevisiae, UniProt P07213 46-617, looked up)
chain: KDEKKDTKDSQKETEGAKKSTAPSNPPIYPVSSNGEPDFSNKANFTAEEKDKYALALKDKGNQFFRNKKYDDAIKYYNWALELKEDPVFYSNLSACYVSVGDLKKVVEMSTKALELKPDYSKVLLRRASANEGLGKFADAMFDLSVLSLNGDFNDASIEPMLERNLNKQAMSKLKEKFGDIDTATATPTELSTQPAKERKDKQENLPSVTSMASFFGIFKPELTFANYDESNEADKELMNGLSNLYKRSPESYDKADESFTKAARLFEEQLDKNNEDEKLKEKLAISLEHTGIFKFLKNDPLGAHEDIKKAIELFPRVNSYIYMALIMADRNDSTEYYNYFDKALKLDSNNSSVYYHRGQMNFILQNYDQAGKDFDKAKELDPENIFPYIQLACLAYRENKFDDCETLFSEAKRKFPEAPEVPNFFAEILTDKNDFDKALKQYDLAIELENKLDGIYVGIAPLVGKATLLTRNPTVENFIEATNLLEKASKLDPRSEQAKIGLAQMKLQQEDIDEAITLFEESADLARTMEEKLQAITFAEAAKVQQRIRSDPVLAKKIQETLAKLREQGLM
notes: Tom70, cytosolic domain, residues 46-617; also called cytosolic domain of Tom70; source: expressed and purified as described earlier (Papić et al., 2013); not shown: GST, N-terminal, kept

For one experiment, the target named is T1, GST-Tom20(35-183). Briefly: pull-down; purified GST, GST-Tom20 or GST-Tom70 on glutathione sepharose beads blocked with 5% BSA, mixed with cleared in vitro translation reactions (yeast extract) of HA-tagged proteins; ATP added every 30 min; 20 mM Hepes, 100 mM NaCl, 1 mM MgCl2, pH 7.25; anti-HA blot. Particulars: one partner purified.
Another experiment addresses T3, recombinant Ssa1 (S. cerevisiae, UniProt P10591 1-642).
T3 construct: Ssa1, yeast cytosolic Hsp70 chaperone; also called Hsp70 Ssa1; source: recombinantly expressed and purified
Nature of the experiment: fluorescence polarisation; fluorescence anisotropy titration, 2 µM TAMRA-labeled peptide with increasing concentrations of Ssa1 or Sis1, 30 °C; Kd from hyperbolic regression of the difference in anisotropy. The following applies: both partners purified. A general note: In fluorescence polarisation assays a small probe gives low polarisation when free and higher when bound to something large.

For a further experiment, the target named is T2, recombinant Sis1. The description is as above. Particulars: both partners purified.
The target in the experiment “GST-Tom70(46-617)” is B4. Nature of the experiment: fluorescence polarisation; fluorescence anisotropy, 2 µM TAMRA-labeled peptide, 30 °C; single additions of 10 µM Ssa1, 30 µM Sis1, 10 µM GST-Tom70, GST, BSA or 1 mM ATP alone or in the indicated order. Particulars: both partners purified.
Another experiment concerns the target T4, Ssa1-Mcr1(TMS) complex (S. cerevisiae, UniProt P10591 1-642; P36060 1-39, Tetramethylrhodamine (TAMRA), position not stated).
T4 construct: Ssa1, as m37; Mcr1 residues 1-39, as m36; also called substrate-chaperone complex; Ssa1/substrate complex; source: formed beforehand by adding 10 µM recombinant Ssa1 to 2 µM TAMRA-labeled Mcr1 peptide
The experiment is described as above. The following applies: both partners purified.

T3 sequence (P10591 whole entry): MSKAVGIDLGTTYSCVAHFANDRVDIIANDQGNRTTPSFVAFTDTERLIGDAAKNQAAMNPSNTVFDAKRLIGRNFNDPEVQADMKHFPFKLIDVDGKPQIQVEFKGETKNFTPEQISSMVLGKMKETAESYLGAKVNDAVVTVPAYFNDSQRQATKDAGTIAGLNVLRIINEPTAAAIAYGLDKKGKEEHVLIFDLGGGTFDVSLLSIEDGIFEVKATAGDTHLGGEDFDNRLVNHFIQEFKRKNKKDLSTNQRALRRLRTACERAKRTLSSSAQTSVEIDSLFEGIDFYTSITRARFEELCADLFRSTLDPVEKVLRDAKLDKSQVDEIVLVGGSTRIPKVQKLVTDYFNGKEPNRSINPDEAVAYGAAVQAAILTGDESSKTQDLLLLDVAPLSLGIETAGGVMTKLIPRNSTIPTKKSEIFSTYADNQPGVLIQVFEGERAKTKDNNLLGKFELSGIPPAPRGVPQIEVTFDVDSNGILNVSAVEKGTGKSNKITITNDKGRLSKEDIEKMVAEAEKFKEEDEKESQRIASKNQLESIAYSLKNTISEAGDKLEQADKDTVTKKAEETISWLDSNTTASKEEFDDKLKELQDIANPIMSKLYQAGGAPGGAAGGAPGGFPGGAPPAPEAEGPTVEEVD
T4 sequence (P10591 whole entry, the tested form may be a part, one chain of several): as the sequence (P10591 whole entry) above

For the molecule B1, the “fold binding to GST-Tom20 relative to GST-Tom70 (after normalising to GST)” value with GST-Tom20(35-183) was found to be 4 fold.
For B2, the Kd was 2.42 µM in the experiment with recombinant Ssa1 and 18.3 µM with recombinant Sis1.
In the case of B3, the figures for the Kd with recombinant Ssa1 and with recombinant Sis1 were 3.27 µM and 25.8 µM, respectively. Further, the binding result with GST-Tom70(46-617) is recorded as “binds”.
With B4, the binding result with Ssa1-Mcr1(TMS) complex was “binds”.

In general, Kd refers to the free concentration of one partner at which half of the binding sites on the other are occupied at equilibrium, for simple one-to-one binding.

The values above are taken from article PMC9355564, “A network of cytosolic (co)chaperones promotes the biogenesis of mitochondrial signal-anchored outer membrane proteins” (eLife, 2022).
